The target in assay [1] is T1, TPP-2202, TWEAKR-ECD-28-80-hIgGFc-His (human).
T1 construct: also called TWEAKR-Fc fusion protein; full-length ectodomain Fc fusion
The assay is described as follows: ELISA: TPP-2202 (TWEAKR 28-80-Fc) coated at 1 µg/ml; biotinylated IgG at 0.08 µg/ml (open bars) and 0.3 µg/ml (solid bars; legend of FIG. 3 prints 0.03); streptavidin-HRP, Amplex Red; Y = signal [Rfu]. The protocol:
FIG. 3: Interaction of the TWEAKR ectodomain with antibodies and reference antibodies. […] Detection was carried out using streptavidin-HRP and Amplex Red substrate.
Detection was carried out using streptavidin-HRP and Amplex Red substrate. IgGs were biotinylated using an about 2-fold molar excess of biotin-LC-NHS (Pierce; Cat. No. 21347) according to the instructions of the manufacturer and desalted using Zeba desalting columns (Pierce; Cat. No. 89889).
(In general: ELISA stands for enzyme-linked immunosorbent assay.)

Assay [2] has as its target T2, TPP-2621, TweakR-ECD-34-68-hIgGFc-His-H60A (human).
T2 construct: Used as HEK293 supernatant; also called H60A mutein
In words: alanine scan ELISA: IgG coated 1 µg/ml, HEK293 supernatant of TWEAKR(34-68)-Fc construct, anti-HIS-HRP.

The target of assay [3] is T3, TPP-2622, TweakR-ECD-34-68-hIgGFc-His-S61A (human).
T3 construct: Used as HEK293 supernatant; also called S61A mutein
The description is as above.

The target in assay [4] is T4, TPP-2613, TweakR-ECD-34-68-hIgGFc-His-D45A (human).
T4 construct: Used as HEK293 supernatant; also called D45A mutein
The description is as above.

For assay [5], the target named is T5, TPP-2616, TweakR-ECD-34-68-hIgGFc-His-D51A (human).
T5 construct: Used as HEK293 supernatant; also called D51A mutein
The assay is described as above.

For assay [6], the target named is T6, TPP-2609, TweakR-ECD-34-68-hIgGFc-His-S40A (human).
T6 construct: Used as HEK293 supernatant; also called S40A mutein
The assay is described as above.

The target of assay [7] is T7, TPP-2610, TweakR-ECD-34-68-hIgGFc-His-S41A (human).
T7 construct: Used as HEK293 supernatant; also called S41A mutein
The assay is described as above.

In assay [8] the target is T8, TPP-2611, TweakR-ECD-34-68-hIgGFc-His-W42A (human).
T8 construct: Used as HEK293 supernatant; also called W42A mutein (34-68)
The description is as above.

For assay [9], the target named is T9, TPP-2624, TweakR-ECD-34-68-hIgGFc-His-F63A (human).
T9 construct: Used as HEK293 supernatant; also called F63A mutein
Described as above.

Assay [10] deals with T10, TPP-2625, TweakR-ECD-34-68-hIgGFc-His-L65A (human).
T10 construct: Used as HEK293 supernatant; also called L65A mutein
The description is as above.

Assay [11] concerns the target T11, TPP-2612, TweakR-ECD-34-68-hIgGFc-His-S43A (human).
T11 construct: Used as HEK293 supernatant; also called S43A mutein
The assay is described as above.

In assay [12] the target is T12, TPP-2608, TweakR-ECD-34-68-hIgGFc-His-R38A (human).
T12 construct: Used as HEK293 supernatant; also called R38A mutein
The description is as above.

In assay [13] the target is T13, TPP-2618, TweakR-ECD-34-68-hIgGFc-His-R56A (human).
T13 construct: Used as HEK293 supernatant; also called R56A mutein
Described as above.

Assay [14] has as its target T14, TPP-2615, TweakR-ECD-34-68-hIgGFc-His-K48A (human).
T14 construct: Used as HEK293 supernatant; also called K48A mutein
The description is as above.

Assay [15] addresses T15, TPP-2623, TweakR-ECD-34-68-hIgGFc-His-D62A (human).
T15 construct: Used as HEK293 supernatant; also called D62A mutein
The description is as above.

Assay [16] has as its target T16, TPP-2620, TweakR-ECD-34-68-hIgGFc-His-P59A (human).
T16 construct: Used as HEK293 supernatant; also called P59A mutein
The description is as above.

Assay [17] deals with T17, TPP-2607, TweakR-ECD-34-68-hIgGFc-His-S37A (human).
T17 construct: Used as HEK293 supernatant; also called S37A mutein
The description is as above.

The target in assay [18] is T18, TPP-2617, TweakR-ECD-34-68-hIgGFc-His-S54A (human).
T18 construct: Used as HEK293 supernatant; also called S54A mutein
The assay is described as above.

Assay [19] has as its target T19, TPP-2619, TweakR-ECD-34-68-hIgGFc-His-R58A (human).
T19 construct: Used as HEK293 supernatant; also called R58A mutein
The assay is described as above.

T1 sequence (chain, as listed by the source limits assumed): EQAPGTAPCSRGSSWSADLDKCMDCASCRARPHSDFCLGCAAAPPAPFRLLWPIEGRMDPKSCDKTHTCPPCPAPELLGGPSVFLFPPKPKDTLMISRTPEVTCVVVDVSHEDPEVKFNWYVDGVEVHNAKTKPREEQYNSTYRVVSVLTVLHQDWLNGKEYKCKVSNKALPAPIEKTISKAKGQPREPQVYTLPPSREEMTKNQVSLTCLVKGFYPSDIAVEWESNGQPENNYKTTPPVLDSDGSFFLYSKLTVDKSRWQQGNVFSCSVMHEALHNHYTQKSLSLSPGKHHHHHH

B1: P4A8(TPP-1324) (antibody, human IgG1, kappa, V domains shown)
VH: QVQLVQSGAEVKKPGASVKVSCKGSGYTFTDYGMHWVRQAPGQGLEWMGVISTYNGYTNYNQKFKGRVTMTVDKSTSTAYMELRSLRSDDTAVYYCARAYYGNLYYAMDYWGQGTLVTVSS
VL: DIVLTQSPASLAVSLGQRATISCRASKSVSTSSYSYMHWYQQKPGQPPKLLIKYASNLESGVPARFSGSGSGTDFSLNIHPMEEDDTAMYFCQHSRELPFTFGGGTKLEIKR
notes: Comparative antibody; variable domains from WO2009/140177 with human IgG1 constant region added
As to B1, the binding result is “binds” in assay [1]; “no binding” in assay [2]; “no binding” in assay [3]; “no binding” in assay [4]; “no binding” in [5]; “no binding” in assay [6]. Also, the binding result in assay [7], in assay [8], in [9], in [10], in assay [11] and in assay [12] was “no binding” throughout. Also, the binding result in assay [13], in assay [14], in assay [15], in assay [16], in assay [17] and in assay [18] was “no binding” each time. For the same molecule, the binding result in assay [19] is recorded as “no binding”.

(Values after patent US20160346402A1 (Bayer, published 2016).)
